This is an account of results in the RNAGym collection of RNA variant scans (doi:10.7554/elife.80360).

B1: Hairpin Ribozyme (parent)
chain: GUCCUCUUUCACGUGCGCGUGAAAGAGAGAAGUGAACCAGAGAAACACACGUUGUGGUAUAUUACCUGGUA

In this series the parent is B1. The series is described as follows: self-cleavage, relative activity (ratio to wild type); higher = more cleavage; co-transcriptional.
As to U8G G25C, the self-cleavage came out at 0.0293.

As to U8G U63C, the self-cleavage was found to be 0.155.

With U8G U63G, the self-cleavage worked out at 0.172.

Regarding U9C C37G, the self-cleavage amounted to 0.595.

Turning to U9C C37U, the self-cleavage was determined as 0.529.

On to U8G A26G, for which the self-cleavage was determined as 0.673.

Turning to U8C C66A, the self-cleavage came to 0.19.

As for U8C C66U, the self-cleavage worked out at 0.273.

As for U9G G68C, the self-cleavage was determined as 0.136.

On to U8C A47C, for which the self-cleavage came to 0.131.

Consider U8G U52G, for which the self-cleavage amounted to 0.621.

In the case of U8G U52A, the self-cleavage stood at 0.752.

U9G G27C: the self-cleavage was 0.115.

On to U9C C50G, for which the self-cleavage is 0.258.

Take U9C C50U: the self-cleavage amounted to 0.314.

On to U9G U67C, for which the self-cleavage was determined as 0.188.

Regarding U8C U20A, the self-cleavage is 0.604.

For U8C U20G, the self-cleavage was 0.439.

Consider U9C G51C, for which the self-cleavage stood at 0.761.

With U9C G51A, the self-cleavage is 0.775.

In the case of U9A G32A, the self-cleavage is 0.179.

In the case of U9C C12U, the self-cleavage is 0.665.

As to U8C A35G, the self-cleavage stood at 0.385.

With U8A G51A, the self-cleavage came out at 0.749.

Turning to U8A G51U, the self-cleavage turned out to be 0.92.

Consider U8G A28C, for which the self-cleavage stood at 0.433.

With U8G A28U, the self-cleavage was 0.514.

As to U9A U53G, the self-cleavage worked out at 0.703.

U9A U53C: the self-cleavage came to 0.732.

Take U8C G56C: the self-cleavage turned out to be 0.12.

Consider U8C U9G, for which the self-cleavage was 0.374.

As to U9G C12A, the self-cleavage came to 0.499.

Regarding U9G C12G, the self-cleavage turned out to be 0.53.

As to U8C C50U, the self-cleavage turned out to be 0.172.

As for U8G G34U, the self-cleavage was found to be 1.28.

For the variant U9C A41G, the self-cleavage is 0.706.

Take U9A G56C: the self-cleavage came out at 0.0939.

For the variant U9A A43G, the self-cleavage is 0.179.

Consider U9A A43C, for which the self-cleavage was 0.142.

With U8C A61G, the self-cleavage amounted to 0.0942.

As for U8G G69U, the self-cleavage was found to be 0.29.

For U8G A35C, the self-cleavage was determined as 0.715.

Consider U8A U63C, for which the self-cleavage was found to be 0.218.

Consider U9G C38A, for which the self-cleavage is 0.243.

U9G C38U: the self-cleavage came out at 0.41.

Turning to U9C U70G, the self-cleavage was 0.687.

Take U8C G42U: the self-cleavage stood at 0.252.

Regarding U8C A11C, the self-cleavage was 0.289.

Turning to U9C A22C, the self-cleavage was 0.799.

Take U9C A22G: the self-cleavage was 1.04.

U8C A24G: the self-cleavage was found to be 0.502.

Consider U8C A24C, for which the self-cleavage was determined as 0.196.

Regarding U8C U33C, the self-cleavage was determined as 0.214.

For U8C U33G, the self-cleavage was found to be 0.36.

U9A A22G: the self-cleavage came to 0.605.

Regarding U9A A22C, the self-cleavage worked out at 0.773.

Regarding U9G G32U, the self-cleavage was found to be 0.123.

For U9C A61U, the self-cleavage turned out to be 0.0555.

Turning to U9G G54A, the self-cleavage is 0.418.

Regarding U9C U63A, the self-cleavage amounted to 0.131.

Consider U9A G21C, for which the self-cleavage stood at 0.465.

For the variant U9A C50G, the self-cleavage was found to be 0.214.

Regarding U9A C50A, the self-cleavage worked out at 0.264.

For the variant U9A A59C, the self-cleavage stood at 0.0956.

Take U9A A59G: the self-cleavage amounted to 0.154.

Turning to U8G A64G, the self-cleavage was 0.476.

U8G U14G: the self-cleavage is 0.542.

Regarding U8G U14C, the self-cleavage came to 0.814.

On to U8G U14A, for which the self-cleavage came to 0.554.

As for U9C G68U, the self-cleavage was determined as 0.217.

Turning to U9G A45C, the self-cleavage stood at 0.0983.

As for U8G C18G, the self-cleavage stood at 0.518.

Consider U9A U58G, for which the self-cleavage was determined as 0.494.

U9A U58A: the self-cleavage came to 0.344.

Consider U9A C48A, for which the self-cleavage worked out at 0.144.

For the variant U9A G25C, the self-cleavage was 0.232.

As to U9A G25A, the self-cleavage was 0.191.

As to U8C U63G, the self-cleavage worked out at 0.188.

As to U9G G57A, the self-cleavage was 0.132.

Turning to U8G U55G, the self-cleavage turned out to be 0.223.

Turning to U8G U9A, the self-cleavage was 0.734.

As to U9A A35G, the self-cleavage was determined as 0.744.

In the case of U9A A35U, the self-cleavage is 0.578.

U9C G17U: the self-cleavage was 0.709.

On to U9G A61G, for which the self-cleavage was 0.257.

Take U9G A36G: the self-cleavage is 0.793.

Take U9G A36U: the self-cleavage is 0.431.

U9G A36C: the self-cleavage worked out at 0.381.

For the variant U8C C16G, the self-cleavage turned out to be 0.651.

U8C C16U: the self-cleavage turned out to be 0.734.

U8C C16A: the self-cleavage is 0.84.

With U8C G17A, the self-cleavage was 0.632.

On to U8C G40A, for which the self-cleavage worked out at 0.274.

For U9G C10U, the self-cleavage was 0.743.

As to U9G C10A, the self-cleavage worked out at 0.735.

On to U9C U33C, for which the self-cleavage was 0.104.

With U9G A44U, the self-cleavage stood at 0.162.

In the case of U9G G40C, the self-cleavage turned out to be 0.104.

In the case of U8G G13U, the self-cleavage was determined as 0.438.

Take U9A A28C: the self-cleavage worked out at 0.266.

In the case of U9A A28G, the self-cleavage was found to be 0.748.

As for U9G G51A, the self-cleavage was 0.626.

Take U8A U53C: the self-cleavage came out at 0.778.

For U9C G27C, the self-cleavage came out at 0.109.

As for U8G G51U, the self-cleavage turned out to be 0.886.

For U9C U14C, the self-cleavage is 0.533.

In the case of U9C A47G, the self-cleavage amounted to 0.123.

With U9A C66U, the self-cleavage is 0.266.

For U9A U55G, the self-cleavage is 0.279.

For the variant U9G U60G, the self-cleavage turned out to be 0.322.

Consider U9G G25A, for which the self-cleavage came out at 0.153.

Take U9G U62G: the self-cleavage stood at 0.154.

U8G C12U: the self-cleavage was 0.447.

As to U8G C12A, the self-cleavage was 0.395.

U9C A59U: the self-cleavage amounted to 0.146.

On to U9C A59C, for which the self-cleavage worked out at 0.142.

Regarding U9A A24C, the self-cleavage is 0.514.

Take U9A A24U: the self-cleavage is 0.466.

As for U9A A39U, the self-cleavage worked out at 0.335.

Take U8A G56A: the self-cleavage is 0.158.

U8G A43U: the self-cleavage was 0.228.

Regarding U8G A43C, the self-cleavage amounted to 0.152.

On to U8C A36G, for which the self-cleavage is 0.928.

For U8C C46U, the self-cleavage was 0.172.

On to U9G A59U, for which the self-cleavage was found to be 0.101.

With U9G A59C, the self-cleavage is 0.275.

U9C G25C: the self-cleavage amounted to 0.314.

In the case of U9C G25A, the self-cleavage came out at 0.24.

Take U8A G34U: the self-cleavage turned out to be 1.05.

On to U9C U58C, for which the self-cleavage is 0.747.

As to U8C G32A, the self-cleavage came out at 0.198.

On to U9G G29A, for which the self-cleavage turned out to be 0.0566.

As to U9G G29C, the self-cleavage turned out to be 0.129.

In the case of U9G G29U, the self-cleavage was found to be 0.1.

U8A U58A: the self-cleavage was determined as 0.561.

In the case of U8A U58G, the self-cleavage stood at 0.515.

Take U8A U58C: the self-cleavage is 0.913.

Turning to U8G G68A, the self-cleavage came out at 0.119.

Regarding U8G G68U, the self-cleavage worked out at 0.268.

Regarding U8C G21U, the self-cleavage came out at 0.142.

For U9A A47U, the self-cleavage amounted to 0.135.

Turning to U9A A47G, the self-cleavage was determined as 0.0847.

Consider U8C A39U, for which the self-cleavage was determined as 0.25.

In the case of U8C A39G, the self-cleavage was determined as 0.201.

Turning to U9C C65U, the self-cleavage is 0.258.

As for U9C A64U, the self-cleavage was 0.0987.

For the variant U9C A64G, the self-cleavage was determined as 0.381.

As for U9C A64C, the self-cleavage is 0.201.

As for U9G A23U, the self-cleavage came out at 0.482.

Regarding U9G A23C, the self-cleavage was found to be 0.589.

As for U9A G19A, the self-cleavage was 0.588.

As to U8G U58C, the self-cleavage was 0.725.

Regarding U8G A22U, the self-cleavage came out at 0.582.

On to U9A G13C, for which the self-cleavage was determined as 0.399.

For U8A G54A, the self-cleavage is 0.396.

Regarding U9G G19C, the self-cleavage is 0.56.

Regarding U8A G57U, the self-cleavage was 0.267.

As to U8A G57A, the self-cleavage came out at 0.196.

For U8A G57C, the self-cleavage turned out to be 0.0778.

Regarding U9C A36G, the self-cleavage was 0.882.

For U9G A47G, the self-cleavage came out at 0.231.

For U9C A44U, the self-cleavage was determined as 0.247.

Take U8G A23G: the self-cleavage was determined as 0.759.

As for U8G G32U, the self-cleavage is 0.0934.

With U8G G32C, the self-cleavage was 0.12.

On to U8G A71C, for which the self-cleavage amounted to 1.34.

For the variant U8C G25A, the self-cleavage is 0.197.
